Laboratory results: publication PMC8115288, “INI1/SMARCB1 Rpt1 domain mimics TAR RNA in binding to integrase to facilitate HIV-1 replication” (Nature Communications, 2021)

Target: T1, GST-CTD (C-terminal domain of HIV-1 integrase, aa 201-288) (HIV-1 (Hx3B), UniProt P04585 1348-1435)
T1 construct: Integrase (IN) of HIV-1, C-terminal domain aa 201-288; template HIV-1 Hx3B DNA (P04585 is isolate HXB2); also called IN-CTD; GST-IN-CTD(aa 201-288); source: pGEX3xPL construct; on glutathione sepharose 4B beads (pull-down) or as GST-tagged protein (AlphaScreen)
Assay: AlphaScreen or HTRF; competition: GST-CTD (0.03 uM) with Bio-TAR RNA (0.1 uM), increasing INI1(183-304) as third component; low salt; four-parameter dose-response fit
Conditions: both partners purified

B1: His6-SUMO-INI1_(183-304) (domain or fragment, UniProt Q12824 183-304, looked up)
chain: PEVLVPIRLDMEIDGQKLRDAFTWNMNEKLMTPEMFSEILCDDLDLNPLTFVPAIASAIRQQIESYPTDSILEDQSDQRVIIKLNIHVGNISLVDQFEWDMSEKENSPEKFALKLCSELGLG
notes: INI1/SMARCB1, residues 183-304 (Rpt1, linker and part of Rpt2); Vector pET28a-h6-smt3; also called 6His-SUMO-INI1_(183-304); source: E. coli; clarified bacterial cell lysate for the pull-down
Q: How did the IC50 turn out when B1 was run?
A: ~5 nM
